The record followed here is paper PMC12144180 (Nature Communications, 2025).

The assay has as its target T1, RNA polymerase I subunit A135 (S. cerevisiae, UniProt P22138 1-1203).
T1 sequence: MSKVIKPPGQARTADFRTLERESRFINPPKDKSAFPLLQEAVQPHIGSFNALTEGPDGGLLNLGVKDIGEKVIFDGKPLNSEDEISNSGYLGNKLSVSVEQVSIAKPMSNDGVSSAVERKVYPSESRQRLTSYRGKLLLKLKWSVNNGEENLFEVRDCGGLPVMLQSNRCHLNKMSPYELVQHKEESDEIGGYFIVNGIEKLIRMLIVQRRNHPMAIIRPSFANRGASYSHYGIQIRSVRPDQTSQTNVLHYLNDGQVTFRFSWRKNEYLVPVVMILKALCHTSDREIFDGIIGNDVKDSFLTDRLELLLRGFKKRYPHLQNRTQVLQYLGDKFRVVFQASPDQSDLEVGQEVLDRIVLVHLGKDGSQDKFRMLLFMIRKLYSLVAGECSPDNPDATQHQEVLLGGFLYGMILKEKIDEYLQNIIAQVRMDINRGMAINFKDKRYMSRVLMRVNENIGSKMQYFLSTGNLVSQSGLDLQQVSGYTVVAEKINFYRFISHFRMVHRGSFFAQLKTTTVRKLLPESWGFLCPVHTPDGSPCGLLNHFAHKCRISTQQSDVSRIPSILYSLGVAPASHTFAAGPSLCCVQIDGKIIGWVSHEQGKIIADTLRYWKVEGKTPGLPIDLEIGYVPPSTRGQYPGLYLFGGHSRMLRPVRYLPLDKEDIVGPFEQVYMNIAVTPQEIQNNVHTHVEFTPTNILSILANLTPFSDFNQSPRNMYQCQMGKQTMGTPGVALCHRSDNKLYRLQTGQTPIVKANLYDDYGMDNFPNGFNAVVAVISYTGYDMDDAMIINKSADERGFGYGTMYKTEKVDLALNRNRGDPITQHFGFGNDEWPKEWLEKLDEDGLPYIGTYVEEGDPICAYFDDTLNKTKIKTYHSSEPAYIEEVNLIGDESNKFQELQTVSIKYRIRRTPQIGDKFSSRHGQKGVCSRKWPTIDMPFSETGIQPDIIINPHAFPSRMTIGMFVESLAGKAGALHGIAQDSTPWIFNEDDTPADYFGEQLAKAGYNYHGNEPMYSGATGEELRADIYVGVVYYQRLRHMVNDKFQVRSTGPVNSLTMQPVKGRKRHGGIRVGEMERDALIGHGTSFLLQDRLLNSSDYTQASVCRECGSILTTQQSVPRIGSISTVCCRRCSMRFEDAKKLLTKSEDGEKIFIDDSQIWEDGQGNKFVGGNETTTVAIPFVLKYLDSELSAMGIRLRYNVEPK
Nature of the assay: cryo-EM structure.

B1: A49/A34.5 heterodimer of RNA polymerase I (complex)
chain 1: MSVKRSVSEIEIESVQDQPSVAVGSFFKGFRAPSDTTFDLYKKKKSEKDEFVLHGENERLEYEGYTDSSSQASNQYVVGLFNPEKKSIQLYKAPVLVSKVVSKSSKNLRGPKIKSKSDTRPSALRNALGEAFGTKKAKKAIADLERNRIDSDKLTDSAIDIVDSVRTASKDLPTRAQLDEITSNDRPTPLANIDATDVEQIYPIESIIPKKELQFIRVSSILKEADKEKKLELFPYQNNSKYVAKKLDSLTQPSQMTKLQLLYYLSLLLGVYENRRVNNKTKLLERLNSPPEILVDGILSRFTVIKPGQFGRSKDRSYFIDPQNEDKILCYILAIIMHLDNFIVEITPLAHELNLKPSKVVSLFRVLGAIVKGATVAQAEAFGIPKSTAASYKIATMKVPFKLPEMTRRGRGPRR
chain 2: MSKLSKDYVSDSDSDDEVISNEFSIPDGFKKCKHLKNFPLNGDNKKKAKQQQVWLIKFPSNVDISKLKSLPVDFESSTTMTIDKHDYKIMDDTDIESSLTQDNLSNMTLLVPSESKESLKIASTAKDNAPLQFDKVFSVSETAKIPAIDYSKVRVPRKDVPKVEGLKLEHFATGYDAEDFHVAEEVKENKKEPKKRSHHDDEEESSEKKKKKKEKREKREKKDKKDKKKKHRD
As to B1, the binding result is “binds”.

B2: RNA polymerase I subunit A12 (natural protein)
chain: MSVVGSLIFCLDCGDLLENPNAVLGSNVECSQCKAIYPKSQFSNLKVVTTTADDAFPSSLRAKKSVVKTSLKKNELKDGATIKEKCPQCGNEEMNYHTLQLRSADEGATVFYTCTSCGYKFRTNN
With B2, the binding result is reported as “binds”.
